Experimental data taken from PMC5915679.

Experiments:
[1] = molecular target: hGW182 ABD (455–841), tandem tryptophans of motif-2 and the hook mutated to alanine (human) (UniProt Q8NDV7); assay: pull-down
[2] = molecular target: hGW182 ABD (455–841), tandem tryptophans of motif-1 and the hook mutated to alanine (human) (UniProt Q8NDV7); assay: pull-down
[3] = molecular target: hGW182 ABD (455–841) with motif-2 and the hook deleted (human) (UniProt Q8NDV7); assay: SEC
[4] = molecular target: hGW182 ABD (455–841) with the hook deleted (human) (UniProt Q8NDV7); assay: SEC
[5] = molecular target: hGW182 ABD (455–841) with motif-1 and motif-2 deleted (human) (UniProt Q8NDV7); assay: SEC
[6] = molecular target: hGW182 ABD (455–841) with motif-1 and the hook deleted (human) (UniProt Q8NDV7); assay: SEC
[7] = molecular target: hGW182 ABD (455–841) with motif-1 deleted (human) (UniProt Q8NDV7); assay: SEC

percent reduction of binding against the wild-type ABD [1]: < 10% | percent reduction of binding against the wild-type ABD [2]: < 10% | stoichiometry N [3]: 1 | stoichiometry N [4]: 2 | stoichiometry N [5]: 1 | stoichiometry N [6]: 1 | stoichiometry N [7]: 2
Substance: human Argonaute-2 (from UniProt Q9UKV8 1-859) (natural protein)
